From publication PMC5758831, “A proline deletion in IFNAR1 impairs IFN-signaling and underlies increased resistance to tuberculosis in humans” (Nature Communications, 2018) come the findings set out here.

The target in assay [1] is T1, hIFNAR1-extracellular domain (ECD) (human, UniProt P17181 28-424).
T1 construct: interferon alpha and beta receptor subunit 1 (IFNAR1), human, extracellular domain, amino acids 28-424 of hIFNAR1 (GenBank CAA42992.1); The cloning paragraph says N-terminal 6xHis tag (modified pFastBac-1); the SPR paragraph says capture by C-terminal His-tags; The reverse primer encodes ...PGNTSK-stop; also called hIFNAR1-ECD; WT IFNAR1-ECD; not shown: 6xHis, N-terminal, kept
T1 sequence (looked up): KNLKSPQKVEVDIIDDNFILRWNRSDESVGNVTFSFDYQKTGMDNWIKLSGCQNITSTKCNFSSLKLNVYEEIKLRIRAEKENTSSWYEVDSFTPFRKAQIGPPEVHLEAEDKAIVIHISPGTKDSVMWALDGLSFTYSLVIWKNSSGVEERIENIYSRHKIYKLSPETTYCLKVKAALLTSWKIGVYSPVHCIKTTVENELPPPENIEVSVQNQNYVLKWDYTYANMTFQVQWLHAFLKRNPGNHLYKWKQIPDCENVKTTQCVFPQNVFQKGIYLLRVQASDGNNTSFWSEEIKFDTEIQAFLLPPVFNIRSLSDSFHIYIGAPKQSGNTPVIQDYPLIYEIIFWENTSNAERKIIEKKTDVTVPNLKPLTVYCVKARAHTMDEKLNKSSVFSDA
Nature of the assay: SPR; ProteOn XPR36, HTG chip; His-tagged hIFNAR1-ECD or hIFNAR1-ECD-Del (25 µg/ml in TBS) immobilised on the nickel activated chip; ReBif (hIFN-β) in TBS as analyte at various concentrations; TBS running buffer; Langmuir binding model; in the absence of IFNAR2. Conditions: both partners purified.

For assay [2], the target named is T2, hIFNAR1-ECD-Del (extracellular domain of human IFNAR1 with the Pro335 deletion) (human, UniProt P17181 28-424, delete P335).
T2 construct: Naturally occurring variant, made by site-directed mutagenesis of hIFNAR1-ECD; N-terminal 6xHis by the cloning paragraph, C-terminal His-tag by the SPR paragraph; also called IFNAR1Del; not shown: 6xHis, N-terminal, kept
T2 sequence (looked up): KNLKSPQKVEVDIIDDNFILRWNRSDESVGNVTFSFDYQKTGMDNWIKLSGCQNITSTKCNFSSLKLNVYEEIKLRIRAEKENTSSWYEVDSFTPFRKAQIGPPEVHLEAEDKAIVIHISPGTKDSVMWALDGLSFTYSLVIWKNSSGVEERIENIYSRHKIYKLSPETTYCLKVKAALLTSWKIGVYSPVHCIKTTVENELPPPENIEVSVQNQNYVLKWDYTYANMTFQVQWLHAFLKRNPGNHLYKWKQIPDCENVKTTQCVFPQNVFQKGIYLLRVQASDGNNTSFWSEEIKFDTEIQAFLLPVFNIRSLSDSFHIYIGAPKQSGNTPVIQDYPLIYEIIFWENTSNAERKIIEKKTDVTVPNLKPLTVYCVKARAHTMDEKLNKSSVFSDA
The assay is described as above. As to conditions: both partners purified.

B1: human IFN-β (ReBif) (ligand, UniProt P01574 22-187, looked up)
chain: MSYNLLGFLQRSSNFQCQKLLWQLNGRLEYCLKDRMNFDIPEEIKQLQQFQKEDAALTIYEMLQNIFAIFRQDSSSTGWNETIVENLLANVYHQINHLKTVLEEKLEKEDFTRGKLMSSLHLKRYYGRILHYLKAKEYSHCAWTIVRVEILRNFYFINRLTGYLRN
notes: interferon beta, human; the drug product ReBif; also called hIFN-β; source: ReBif (hIFN-β), dialyzed into TBS
With B1, the Kd in assay [1] turned out to be 15.8 nM; in assay [2], 28.1 nM.
